According to article PMC13382767:

Molecular target: apo-CA-HNifU (N-terminal His-tagged NifU with cysteines 35, 62, 106, 272 and 275 mutated to alanine, core cluster removed) (A. vinelandii) (UniProt P05340)
Sequence of UniProt P05340 (P05340 other isoform, or with tags, fused parts or gaps, change not shown): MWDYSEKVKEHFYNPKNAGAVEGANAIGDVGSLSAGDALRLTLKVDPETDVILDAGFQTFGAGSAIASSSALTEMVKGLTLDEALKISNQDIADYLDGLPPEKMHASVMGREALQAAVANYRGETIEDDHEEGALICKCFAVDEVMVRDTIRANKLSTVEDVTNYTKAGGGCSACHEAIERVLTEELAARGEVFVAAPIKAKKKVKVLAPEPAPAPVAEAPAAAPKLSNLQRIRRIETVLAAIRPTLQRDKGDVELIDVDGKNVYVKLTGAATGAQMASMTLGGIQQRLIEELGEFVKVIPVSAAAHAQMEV

**Q.** How did the iron transferred from GrxDS to EDTA-treated CA-HNifU (iron in the flowthrough NifU after incubation and separation in a Strep-column) turn out when “C-terminal Strep-tagged A. vinelandii GrxD (GrxDS) (natural protein)” was run?
**A.** 1 iron

**Q.** And the iron transferred from GrxDS to urea-treated apo-CA-HNifU (iron in the flowthrough NifU after incubation and separation in a Strep-column)?
**A.** 1.8 irons
